Test results published in the supplement of paper PMC10567573.

B1: KRT18 (parent)
chain: RVRSLETENRRLESKIREHLEKKG
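Also: lentivirally expressed fusions sorted by FACS into six bins by GFP to DsRed ratio, PSI derived from sequencing read proportions per bin multiplied by bin number.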

Variants of: B1
Test: protein stability index of a GFP-peptide fusion (GPS, HEK-293T) (PSI 1-6); higher = more stable
Conditions: c terminus: a fixed tail appended
With MVRSLETENRRLESKIREHLEKKG [R1M] the protein stability index was 4.09.
In the case of YVRSLETENRRLESKIREHLEKKG [R1Y], the protein stability index is reported as 1.78.
In the case of QVRSLETENRRLESKIREHLEKKG [R1Q], the protein stability index is reported as 4.7.
For IVRSLETENRRLESKIREHLEKKG [R1I], the protein stability index was 3.38.
NVRSLETENRRLESKIREHLEKKG [R1N] gave a protein stability index of 4.56.
With HVRSLETENRRLESKIREHLEKKG [R1H] the protein stability index was 4.14.
FVRSLETENRRLESKIREHLEKKG [R1F] gave a protein stability index of 1.21.
Work on PVRSLETENRRLESKIREHLEKKG [R1P] yielded a protein stability index of 4.45.
In the case of GVRSLETENRRLESKIREHLEKKG [R1G], the protein stability index is reported as 4.36.
With KVRSLETENRRLESKIREHLEKKG [R1K] the protein stability index was 3.94.
For VVRSLETENRRLESKIREHLEKKG [R1V], the protein stability index was 4.19.
For RVRSLETENRRQESKIREHLEKKG [L12Q], the protein stability index was 5.19.
Work on RVRSLETENRRNESKIREHLEKKG [L12N] yielded a protein stability index of 5.35.
Variant RVRSLETENRRIESKIREHLEKKG [L12I] has a protein stability index of 4.77.
For RVRSLETENRRVESKIREHLEKKG [L12V], the protein stability index was 4.69.
For RVRSLETENRRTESKIREHLEKKG [L12T], the protein stability index was 5.22.
In the case of RVRSLETENRRDESKIREHLEKKG [L12D], the protein stability index is reported as 4.21.
In the case of RVRSLETENRRMESKIREHLEKKG [L12M], the protein stability index is reported as 3.02.
In the case of RVRSLETENRRKESKIREHLEKKG [L12K], the protein stability index is reported as 5.49.
With RVRSLETENRRYESKIREHLEKKG [L12Y] the protein stability index was 4.91.
RVRSLETENRRGESKIREHLEKKG [L12G] gave a protein stability index of 5.35.
Variant RVRSLETENRRPESKIREHLEKKG [L12P] has a protein stability index of 5.41.
Work on RVRSLETENRRHESKIREHLEKKG [L12H] yielded a protein stability index of 5.05.
For RVRSLETENRREESKIREHLEKKG [L12E], the protein stability index was 5.88.
For RVRSLETENRRCESKIREHLEKKG [L12C], the protein stability index was 4.78.
RYRSLETENRRLESKIREHLEKKG [V2Y] showed a protein stability index of 4.54.
Variant RDRSLETENRRLESKIREHLEKKG [V2D] has a protein stability index of 4.83.
For RCRSLETENRRLESKIREHLEKKG [V2C], the protein stability index was 4.78.
For RTRSLETENRRLESKIREHLEKKG [V2T], the protein stability index was 5.11.
With RLRSLETENRRLESKIREHLEKKG [V2L] the protein stability index was 3.55.
For RPRSLETENRRLESKIREHLEKKG [V2P], the protein stability index was 4.65.
With RKRSLETENRRLESKIREHLEKKG [V2K] the protein stability index was 4.77.
RWRSLETENRRLESKIREHLEKKG [V2W] showed a protein stability index of 3.9.
With RQRSLETENRRLESKIREHLEKKG [V2Q] the protein stability index was 4.44.
Work on RMRSLETENRRLESKIREHLEKKG [V2M] yielded a protein stability index of 3.82.
RERSLETENRRLESKIREHLEKKG [V2E] showed a protein stability index of 5.32.
RHRSLETENRRLESKIREHLEKKG [V2H] showed a protein stability index of 4.07.
Work on RNRSLETENRRLESKIREHLEKKG [V2N] yielded a protein stability index of 4.16.
Variant RARSLETENRRLESKIREHLEKKG [V2A] has a protein stability index of 4.64.
For RIRSLETENRRLESKIREHLEKKG [V2I], the protein stability index was 4.21.
For RVRSLETENRRLEAKIREHLEKKG [S14A], the protein stability index was 4.6.
In the case of RVRMLETENRRLESKIREHLEKKG [S4M], the protein stability index is reported as 3.64.
With RVRALETENRRLESKIREHLEKKG [S4A] the protein stability index was 4.24.
For RVRHLETENRRLESKIREHLEKKG [S4H], the protein stability index was 3.84.
Work on RVRKLETENRRLESKIREHLEKKG [S4K] yielded a protein stability index of 4.26.
With RVRVLETENRRLESKIREHLEKKG [S4V] the protein stability index was 3.54.
With RVRELETENRRLESKIREHLEKKG [S4E] the protein stability index was 4.48.
Variant RVRRLETENRRLESKIREHLEKKG [S4R] has a protein stability index of 4.29.
RVRCLETENRRLESKIREHLEKKG [S4C] showed a protein stability index of 3.5.
RVRGLETENRRLESKIREHLEKKG [S4G] gave a protein stability index of 4.35.
In the case of RVRPLETENRRLESKIREHLEKKG [S4P], the protein stability index is reported as 4.58.
With RVRNLETENRRLESKIREHLEKKG [S4N] the protein stability index was 4.32.
RVRILETENRRLESKIREHLEKKG [S4I] showed a protein stability index of 2.97.
RVRFLETENRRLESKIREHLEKKG [S4F] showed a protein stability index of 4.29.
RVRYLETENRRLESKIREHLEKKG [S4Y] showed a protein stability index of 3.3.
Work on RVRSLDTENRRLESKIREHLEKKG [E6D] yielded a protein stability index of 4.62.
For RVRSLMTENRRLESKIREHLEKKG [E6M], the protein stability index was 3.4.
Variant RVRSLITENRRLESKIREHLEKKG [E6I] has a protein stability index of 3.84.
With RVRSLRTENRRLESKIREHLEKKG [E6R] the protein stability index was 3.96.
RVRSLCTENRRLESKIREHLEKKG [E6C] showed a protein stability index of 4.43.
For RVRSLVTENRRLESKIREHLEKKG [E6V], the protein stability index was 4.11.
RVRSLPTENRRLESKIREHLEKKG [E6P] showed a protein stability index of 4.44.
With RVRSLLTENRRLESKIREHLEKKG [E6L] the protein stability index was 2.31.
For RVRSLTTENRRLESKIREHLEKKG [E6T], the protein stability index was 3.01.
For RVRSLFTENRRLESKIREHLEKKG [E6F], the protein stability index was 3.32.
In the case of RVRSLKTENRRLESKIREHLEKKG [E6K], the protein stability index is reported as 4.02.
With RVRSLYTENRRLESKIREHLEKKG [E6Y] the protein stability index was 2.53.
For RVRSLNTENRRLESKIREHLEKKG [E6N], the protein stability index was 3.33.
RVRSFETENRRLESKIREHLEKKG [L5F] showed a protein stability index of 4.5.
RVRSMETENRRLESKIREHLEKKG [L5M] showed a protein stability index of 4.77.
Variant RVRSYETENRRLESKIREHLEKKG [L5Y] has a protein stability index of 4.32.
RVRSWETENRRLESKIREHLEKKG [L5W] showed a protein stability index of 4.29.
In the case of RVRSDETENRRLESKIREHLEKKG [L5D], the protein stability index is reported as 4.64.
Work on RVRSQETENRRLESKIREHLEKKG [L5Q] yielded a protein stability index of 4.67.
Variant RVRSCETENRRLESKIREHLEKKG [L5C] has a protein stability index of 3.41.
RVRSAETENRRLESKIREHLEKKG [L5A] showed a protein stability index of 4.54.
Work on RVRSKETENRRLESKIREHLEKKG [L5K] yielded a protein stability index of 3.99.
Variant RVRSTETENRRLESKIREHLEKKG [L5T] has a protein stability index of 4.35.
Variant RVRSVETENRRLESKIREHLEKKG [L5V] has a protein stability index of 5.01.
With RVRSNETENRRLESKIREHLEKKG [L5N] the protein stability index was 5.06.
RVRSLELENRRLESKIREHLEKKG [T7L] gave a protein stability index of 4.54.
For RVRSLEVENRRLESKIREHLEKKG [T7V], the protein stability index was 3.82.
With RVRSLESENRRLESKIREHLEKKG [T7S] the protein stability index was 4.25.
For RVRSLEYENRRLESKIREHLEKKG [T7Y], the protein stability index was 4.47.
For RVRSLEMENRRLESKIREHLEKKG [T7M], the protein stability index was 4.05.
For RVRSLENENRRLESKIREHLEKKG [T7N], the protein stability index was 4.34.
For RVRSLECENRRLESKIREHLEKKG [T7C], the protein stability index was 4.97.
RVRSLEEENRRLESKIREHLEKKG [T7E] gave a protein stability index of 5.17.
Work on RVRSLEDENRRLESKIREHLEKKG [T7D] yielded a protein stability index of 4.17.
Variant RVRSLEFENRRLESKIREHLEKKG [T7F] has a protein stability index of 4.79.
Work on RVRSLEQENRRLESKIREHLEKKG [T7Q] yielded a protein stability index of 4.13.
For RVRSLEPENRRLESKIREHLEKKG [T7P], the protein stability index was 4.9.
RVRSLEGENRRLESKIREHLEKKG [T7G] gave a protein stability index of 4.22.
RVRSLERENRRLESKIREHLEKKG [T7R] gave a protein stability index of 4.1.
